In patent US20220265711A1 (NANJING LEGEND BIOTECH, published 2022):
Blank lines part the entries; values can stand above or below the binder they belong to.

How the values were obtained:
[1] = target: human CD4 (human, UniProt P01730 26-458); assay: cell-based or functional assay
[2] = target: T1, hybrid CD4 protein: mouse CD4 backbone with human CD4 Domain 1 (human; mouse, UniProt P06332 129-457, limits assumed); assay: flow cytometry on HEK293-6E cells expressing mouse CD4 with human CD4 domain 1, against isotype control
T1 construct: Transiently expressed on HEK-293 cells from the pcDNA3.4 vector; also called D1
T1 sequence (P06332 other isoform, or with tags, fused parts or gaps limits assumed): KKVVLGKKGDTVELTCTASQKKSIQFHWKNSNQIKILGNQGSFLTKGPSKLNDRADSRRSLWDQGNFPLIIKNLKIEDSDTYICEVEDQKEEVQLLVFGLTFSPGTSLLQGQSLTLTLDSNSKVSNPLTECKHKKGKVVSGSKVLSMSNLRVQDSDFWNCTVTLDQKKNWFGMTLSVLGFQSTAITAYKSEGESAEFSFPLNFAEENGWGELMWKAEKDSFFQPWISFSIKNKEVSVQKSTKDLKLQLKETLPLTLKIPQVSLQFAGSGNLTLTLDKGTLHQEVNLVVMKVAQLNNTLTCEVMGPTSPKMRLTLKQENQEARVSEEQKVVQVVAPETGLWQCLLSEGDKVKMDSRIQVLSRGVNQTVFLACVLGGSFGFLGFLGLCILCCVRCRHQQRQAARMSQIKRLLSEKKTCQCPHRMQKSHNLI
Description: (§1) CD4 is a member of immunoglobulin superfamily. It contains four extracellular immunoglobulin domains, Domain 1 to 4 from distal to proximal to cell membrane. The four CD4 extracellular domains and its intracellular domain were named D1-D5 and were expressed transiently with a mouse CD4 backbone in HEK-293 cells. The three antibodies were used to detect human CD4 D1-D5 expression by flow cytometry on these 293 cells.

[3] = target: T2, HEK293-6E/domain5 (Mus musculus;Homo sapiens, UniProt P06332;P01730); assay: flow cytometry on HEK293-6E cells expressing mouse CD4 with human CD4 domain 5 (intracellular), against isotype control
T2 construct: full-length backbone without its own intracellular domain;single domain inserted in the mouse backbone; transiently expressed on HEK-293 cells; the human part is intracellular, the extracellular part is mouse CD4; also called hybrid CD4 protein: mouse CD4 backbone with human CD4 intracellular domain; D5
T2 sequence (P06332 other isoform, or with tags, fused parts or gaps limits assumed): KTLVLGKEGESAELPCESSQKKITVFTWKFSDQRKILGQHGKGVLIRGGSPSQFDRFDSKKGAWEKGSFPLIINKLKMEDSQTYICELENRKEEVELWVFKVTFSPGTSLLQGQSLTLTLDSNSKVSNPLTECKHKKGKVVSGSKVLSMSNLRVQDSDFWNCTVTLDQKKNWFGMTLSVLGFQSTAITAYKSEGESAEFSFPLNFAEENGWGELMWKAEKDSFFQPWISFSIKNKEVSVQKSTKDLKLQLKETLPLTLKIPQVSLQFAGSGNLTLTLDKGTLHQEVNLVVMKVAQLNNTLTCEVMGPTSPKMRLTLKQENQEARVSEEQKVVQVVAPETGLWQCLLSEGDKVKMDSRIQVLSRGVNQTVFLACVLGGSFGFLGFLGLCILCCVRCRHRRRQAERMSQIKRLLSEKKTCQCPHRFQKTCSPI
Description: as §1

CD4+ cells in the effector population after 24 h co-culture (18.9% in UNT control) [1]: 12.5%
B1: CAR No. 3 (anti-CD4 chimeric antigen receptor, Tregalizumab VH/VL) (other)
chain: EEQLVESGGGLVKPGGSLRLSCAASGFSFSDCRMYWLRQAPGKGLEWIGVISVKSENYGANYAESVRGRFTISRDDSKNTVYLQMNSLKTEDTAVYYCSASYYRYDVGAWFAYWGQGTLVTVSSAGGGGSGGGGSGGGGSDIVMTQSPDSLAVSLGERATINCRASKSVSTSGYSYIYWYQQKPGQPPKLLIYLASILESGVPDRFSGSGSGTDFTLTISSLQAEDVAVYYCQHSRELPWTFGQGTKVEIKRTTTPAPRPPTPAPTIASQPLSLRPEACRPAAGGAVHTRGLDFACDIYIWAPLAGTCGVLLLSLVITLYCKRGRKKLLYIFKQPFMRPVQTTQEEDGCSCRFPEEEEGGCELRVKFSRSADAPAYKQGQNQLYNELNLGRREEYDVLDKRRGRDPEMGGKPRRKNPQEGLYNELQKDKMAEAYSEIGMKGERRRGKGHDGLYQGLSTATKDTYDALHMQALPPR

binding result [2]: no binding
binding result [3]: no binding
B2: Ibalizumab (antibody, V domains shown)
VH: QVQLQQSGPEVVKPGASVKMSCKASGYTFTSYVIHWVRQKPGQGLDWIGYINPYNDGTDYDEKFKGKATLTSDTSTSTAYMELSSLRSEDTAVYYCAREKDNYATGAWFAYWGQGTLVTVSS
VL: DIVMTQSPDSLAVSLGERVTMNCKSSQSLLYSTNQKNYLAWYQQKPGQSPKLLIYWASTRESGVPDRFSGSGSGTDFTLTISSVQAEDVAVYYCQQYYSYRTFGGGTKLEIKR
notes: also called Ibalizumab monoclonal antibody

CD4+ cells in the effector population after 24 h co-culture (18.9% in UNT control) [1]: 0%
B3: CAR No. 4 (anti-CD4 chimeric antigen receptor, scFv derived from SK3) (other)
chain: QVQLQQSGPELVKPGASVKMSCKASGYTFTDYVINWVKQRTGQGLEWIGETYTGSGSSYYNEKFKDKATLTVDKASNIAYMQLSSLTSEDSAVYFCARRGKGTGFAFWGQGTLVTVSAGGGGSGGGGSGGGGSDIVLTQSPASLAVSLGQRATISCKASQSVDYDGDSYMNWYQQKPGQPPKLLIYAASNLESGIPARFTGSGSGTDFTLNIHPVEEEDTATYYCQQSYEDPPTFAGGTNLEIKTTTPAPRPPTPAPTIASQPLSLRPEACRPAAGGAVHTRGLDFACDIYIWAPLAGTCGVLLLSLVITLYCKRGRKKLLYIFKQPFMRPVQTTQEEDGCSCRFPEEEEGGCELRVKFSRSADAPAYKQGQNQLYNELNLGRREEYDVLDKRRGRDPEMGGKPRRKNPQEGLYNELQKDKMAEAYSEIGMKGERRRGKGHDGLYQGLSTATKDTYDALHMQALPPR

binding result [2]: no binding
binding result [3]: no binding
B4: Tregalizumab (antibody, V domains shown)
VH: EEQLVESGGGLVKPGGSLRLSCAASGFSFSDCRMYWLRQAPGKGLEWIGVISVKSENYGANYAESVRGRFTISRDDSKNTVYLQMNSLKTEDTAVYYCSASYYRYDVGAWFAYWGQGTLVTVSS
VL: DIVMTQSPDSLAVSLGERATINCRASKSVSTSGYSYIYWYQQKPGQPPKLLIYLASILESGVPDRFSGSGSGTDFTLTISSLQAEDVAVYYCQHSRELPWTFGQGTKVEIKR
notes: also called Tregalizumab monoclonal antibody

CD4+ cells in the effector population after 24 h co-culture (18.9% in UNT control) [1]: 13.1%
B5: CAR No. 6 (anti-CD4 chimeric antigen receptor) (other)
chain: QIQLVQSGPELKKPGETVKISCKASGYTFTNYGMNWVKQAPGKGLKCMGWINTNTGEPTYAEEFKGRFAFSLETSATTAFLQINNLKDEDTATYFCARLGLYYDYGYYAMDYWGQGASVTVSSGGGGSGGGGSGGGGSNIVLTQSPASLAVSLGQRATISCRASESVDSYGNSFMHWYQQKPGQPPKLFIYLASNLESGVPARFSGSGSRTDFTLTIDPVEADDAATYYCQQNNEDPYTFGGGTKLEIKTTTPAPRPPTPAPTIASQPLSLRPEACRPAAGGAVHTRGLDFACDIYIWAPLAGTCGVLLLSLVITLYCKRGRKKLLYIFKQPFMRPVQTTQEEDGCSCRFPEEEEGGCELRVKFSRSADAPAYKQGQNQLYNELNLGRREEYDVLDKRRGRDPEMGGKPRRKNPQEGLYNELQKDKMAEAYSEIGMKGERRRGKGHDGLYQGLSTATKDTYDALHMQALPPR
